Measured values published in the supplement of paper PMC12042874.
± gives the uncertainty stated by the source.

Assay: amyloid nucleation score (Sup35N fusion, yeast selection) (log enrichment); library NNK2; higher = more nucleation; inactive = no reads after selection
Procedure, shortened: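 Sup35N fusions to peptides of 20 random codons were expressed in psi-negative yeast, induced 24 hours with 100 μM copper sulfate, and grown 7 days at 30°C on medium lacking adenine and uracil. Input and output plasmid inserts were sequenced by Illumina. The nucleation score is the DiMSum log enrichment of output over input reads, centred on the mode score of non-aggregating sequences. Sequences with under 100 input reads were excluded.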

Substance	amyloid nucleation score
MRSNWYGNVCVVTSNCDGLG	0.837 ± 0.48
MRSYIQFVFCGDCRFFNWVI	6.298 ± 0.05
MRWLYFPLF	-0.801 ± 0.56
MSAYR	-0.018 ± 0.65
MSCSSIRLFQDSIRLCRTSR	-0.02 ± 0.32
MSGFTFKTLGGISHYDFQLD	inactive
MSGYVVFDMALKTRELMPAS	1.87 ± 0.48
MSLLYGS	0.523 ± 0.64
MSLPRSPAWGV	0.863 ± 0.27
MSMLPCGSVYFNTRNAYLWL	6.678 ± 0.065
MSRSSPMIHFETCWHASAGF	3.82 ± 0.044
MSSHSTCRGVGINGLMVFVL	8.073 ± 0.057
MSTLRRLRSRNRRFVNFVWG	-0.019 ± 0.33
MTCRMCGADCPLA	0.539 ± 0.66
MTTALDGSLYVWCQCAVDVI	0.379 ± 0.54
MTVASCSTGCHD	0.084 ± 0.54
MVGNSNAPARVLCTVSKFGV	0.587 ± 0.33
MVLDIFAS	1.19 ± 0.44
MVLYKSRNRLSNYHRLAEST	-0.326 ± 1.1
MVNYDDMANGS	0.465 ± 0.8
MVPCWRFQSMC	0.961 ± 0.81
MVSLIPEMHFNVMLEKVACA	0.562 ± 0.81

Substance	amyloid nucleation score
MVSSIGILASWYTSIVWFGY	-0.191 ± 1.1
MVYNQCRSDL	-1.04 ± 0.23
MWRAQFIYLRMQLVVACVGI	0.394 ± 0.33
MYIGELIAPVCCLRSQFTPC	5.18 ± 0.075
MYKGA	0.595 ± 0.62
MYKIF	inactive
MYLGH	-0.864 ± 1.1
MYLLVV	0.786 ± 0.41
MYLVRIR	0.316 ± 0.42
MYNENRLLSSFNSVCCMLWG	9.787 ± 0.078
MYNQC	0.271 ± 0.44
MYRCQSSVFIFGSYSPILCH	-0.303 ± 0.63
MYRIDD	6.83 ± 0.088
MYRVEGL	inactive
MYVRYANDFVLLIMQVYRCF	-0.488 ± 1
MYYYSFSDTTLWEISPQLAT	-0.582 ± 1.1
NADGYSLMQRSNFSQSNGYL	inactive
NARFSFKTLRYGGVLRKYPL	-0.363 ± 1.1
NARQSLADSSAVRPDARTLI	0.456 ± 0.45
NATLSSFYSLGNEMHSGHSV	-0.209 ± 0.48
NAVEIERNLLQIFQLLNSGE	-0.739 ± 0.64
NCESQVVDMYITIRLFVLWV	0.202 ± 0.18

Substance	amyloid nucleation score
NCKYVVTMMLTSGLCAENIW	-0.81 ± 1
NCQYFMRGFSVISSTFGMLS	-0.395 ± 0.76
NCRRMFGYNHCSHLCPLRVW	-0.653 ± 1.1
NCWISIYNMFLLRRRMMGMG	-0.611 ± 0.63
NCWYTFTL	1.45 ± 0.12
NDGIFDSTRVVETMCLRSSP	-0.129 ± 1.1
NDGLSILVASNMCLSFAWAW	5.109 ± 0.04
NDGVWKLFPLYLTPRSTFLL	0.895 ± 0.81
NDHVVVAHTFYLCDRNVDEM	0.483 ± 0.4
NDKFCATDESVRSRSI	0.042 ± 0.37
NDLARSFRV	-1.13 ± 1.1
NDSFSFDSRCVVDRFGVAKK	-0.612 ± 0.76
NDSNIRINNFFGNFTFGREL	7.485 ± 0.041
NDVAKYACDKHSGNYGYSQG	0.011 ± 1.1
NEHCVNAGSRWMDGCVSCWY	3.58 ± 0.082
NEHMIHIKSDLRYSAESKPY	0.503 ± 0.18
NEIASEYSYRPLLRGWSS	-0.119 ± 0.4
NEMGFSHISGEMCAP	-0.882 ± 0.24
NENKGNF	-0.947 ± 0.54
NEQIW	0.023 ± 0.39
NERRT	0.995 ± 0.53
NEVTRAWSEFPYFMVSRHMT	0.813 ± 0.47

Substance	amyloid nucleation score
NFCLVNLEWMRWSNLTDGLQ	5.34 ± 0.055
NFEHVASLIFGLLILDSQSL	-1.43 ± 0.49
NFFSTISQVMRYILFHSKVD	-1.54 ± 0.54
NFIRDSMVTCRYEKDLGA	0.713 ± 0.8
NFKWVVAVMG	0.789 ± 0.2
NFLLSL	0.322 ± 0.47
NFMNSP	-0.33 ± 1.1
NFRGGFWPVNMNTRLIWSGV	-1.52 ± 0.62
NFRRLVMGSRNYSLFCGDKE	inactive
NFRSVFFAMCRSCVF	-0.145 ± 0.25
NFSYASNTEHRPVSNIFWEL	-1.33 ± 0.62
NFSYNRCVR	0.383 ± 0.49
NFWYCYTLSDNNYFF	7.41 ± 0.038
NFYMSKVVSFKNGCM	3.3 ± 0.057
NFYSYIWLLL	6.38 ± 0.064
NFYVVDQCSYRSGRLNIKWL	4.13 ± 0.079
NGCQV	0.545 ± 0.6
NGCYQGYKCVLRQLAFKSSG	-0.17 ± 0.5
NGDSGG	1.02 ± 0.16
NGHFCWPFFMARHMELREE	-0.013 ± 0.56
NGIKFRGMVVTP	0.294 ± 0.65
NGILRRCMSKLSRAWPDGLE	10.71 ± 0.046
